# In patent US20200297818A1 (ZEALAND PHARMA A S, published 2020):
# *1 amine or outer side, *2 acyl side, *3 side chain or, on linkers, in order; H or OH if unused. Where no end group is shown, it is not given here. Side-chain parts run from the residue outwards. [ ]: non-standard residue; d: D form. The star is where a group is joined. C20 diacid = O=C(O)CCCCCCCCCCCCCCCCCCC(=O)*; C18 diacid = O=C(O)CCCCCCCCCCCCCCCCC(=O)*; γGlu = O=C(O)[C@H](CCC(=O)[*:2])N[*:1]; AEEA = NCCOCCOCC(=O)O; Aib = CC(C)(N)C(=O)O
# T1: human GLP-2 receptor (hGLP2-R) (human, UniProt O95838 1-553)
# T1 sequence (looked up): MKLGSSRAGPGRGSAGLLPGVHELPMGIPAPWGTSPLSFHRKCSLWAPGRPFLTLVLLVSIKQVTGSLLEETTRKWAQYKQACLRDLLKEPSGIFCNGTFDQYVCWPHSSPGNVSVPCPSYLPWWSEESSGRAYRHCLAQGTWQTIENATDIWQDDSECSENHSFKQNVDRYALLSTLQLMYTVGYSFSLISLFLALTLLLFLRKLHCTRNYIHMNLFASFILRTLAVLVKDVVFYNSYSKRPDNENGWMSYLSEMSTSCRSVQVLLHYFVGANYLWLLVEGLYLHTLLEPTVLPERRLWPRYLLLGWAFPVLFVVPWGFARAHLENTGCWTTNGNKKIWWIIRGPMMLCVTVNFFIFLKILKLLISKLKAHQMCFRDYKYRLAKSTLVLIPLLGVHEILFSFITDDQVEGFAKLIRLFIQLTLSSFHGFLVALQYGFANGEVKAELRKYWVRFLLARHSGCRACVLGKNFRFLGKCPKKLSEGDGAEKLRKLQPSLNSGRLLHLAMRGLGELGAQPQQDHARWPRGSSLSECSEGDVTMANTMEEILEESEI
# Columns and labels:
# [1] = molecular target: T1, human GLP-2 receptor (hGLP2-R); assay: cell-based or functional assay
# [2] = molecular target: human glucagon-like peptide 1 receptor (GLP-1 R) (human, UniProt P43220 24-463); assay: cell-based or functional assay
Binder,EC50 GLP-2 (nM); cAMP response [1] [nM],EC50 GLP-1 (nM); cAMP response [2] [nM]
H-H[Aib]EGSFTSELATILDEQAAK([AEEA-AEEA-Lys-Glu-Lys-γGlu-C20 diacid])DFIAWLIEHKITD-OH [Compound 66],0.18,0.65
H-H[Aib]EGSFTSELATILDEQAAK([AEEA-Lys-Glu-Lys-γGlu-C20 diacid])DFIAWLIEHKITD-OH [Compound 64],0.2,0.49
H-H[Aib]EGSFTSELATILDAK([AEEA-AEEA-Lys-Glu-Lys-γGlu-C20 diacid])AARDFIAWLIEHKITD-OH [Compound 63],0.17,0.31
"HXEGTFTSELATILDXEAARDFIAWLIEHKITD (HELM PEPTIDE1{H.[Aib].E.G.T.F.T.S.E.L.A.T.I.L.D.K.E.A.A.R.D.F.I.A.W.L.I.E.H.K.I.T.D}|PEPTIDE2{[O=C(O)CCCCCCCCCCCCCCCCC(=O)[*:2]].[gGlu]}$PEPTIDE1,PEPTIDE2,16:R3-2:R2$$$V2.0; SMILES CC[C@H](C)[C@H](NC(=O)[C@H](Cc1ccccc1)NC(=O)[C@H](CC(=O)O)NC(=O)[C@H](CCCNC(=N)N)NC(=O)[C@H](C)NC(=O)[C@H](C)NC(=O)[C@H](CCC(=O)O)NC(=O)[C@H](CCCCNC(=O)CC[C@H](NC(=O)CCCCCCCCCCCCCCCCC(=O)O)C(=O)O)NC(=O)[C@H](CC(=O)O)NC(=O)[C@H](CC(C)C)NC(=O)[C@@H](NC(=O)[C@@H](NC(=O)[C@H](C)NC(=O)[C@H](CC(C)C)NC(=O)[C@H](CCC(=O)O)NC(=O)[C@H](CO)NC(=O)[C@@H](NC(=O)[C@H](Cc1ccccc1)NC(=O)[C@@H](NC(=O)CNC(=O)[C@H](CCC(=O)O)NC(=O)C(C)(C)NC(=O)[C@@H](N)Cc1c[nH]cn1)[C@@H](C)O)[C@@H](C)O)[C@@H](C)O)[C@@H](C)CC)C(=O)N[C@@H](C)C(=O)N[C@@H](Cc1c[nH]c2ccccc12)C(=O)N[C@@H](CC(C)C)C(=O)N[C@H](C(=O)N[C@@H](CCC(=O)O)C(=O)N[C@@H](Cc1c[nH]cn1)C(=O)N[C@@H](CCCCN)C(=O)N[C@H](C(=O)N[C@H](C(=O)N[C@@H](CC(=O)O)C(=O)O)[C@@H](C)O)[C@@H](C)CC)[C@@H](C)CC) [Compound 3]",0.33,0.042
"HXEGSFTSELATILDXKAARDFIAWLIEHKITD (HELM PEPTIDE1{H.[Aib].E.G.S.F.T.S.E.L.A.T.I.L.D.K.K.A.A.R.D.F.I.A.W.L.I.E.H.K.I.T.D}|PEPTIDE2{[O=C(O)CCCCCCCCCCCCCCCCC(=O)[*:2]].[gGlu]}$PEPTIDE1,PEPTIDE2,16:R3-2:R2$$$V2.0; SMILES CC[C@H](C)[C@H](NC(=O)[C@H](Cc1ccccc1)NC(=O)[C@H](CC(=O)O)NC(=O)[C@H](CCCNC(=N)N)NC(=O)[C@H](C)NC(=O)[C@H](C)NC(=O)[C@H](CCCCN)NC(=O)[C@H](CCCCNC(=O)CC[C@H](NC(=O)CCCCCCCCCCCCCCCCC(=O)O)C(=O)O)NC(=O)[C@H](CC(=O)O)NC(=O)[C@H](CC(C)C)NC(=O)[C@@H](NC(=O)[C@@H](NC(=O)[C@H](C)NC(=O)[C@H](CC(C)C)NC(=O)[C@H](CCC(=O)O)NC(=O)[C@H](CO)NC(=O)[C@@H](NC(=O)[C@H](Cc1ccccc1)NC(=O)[C@H](CO)NC(=O)CNC(=O)[C@H](CCC(=O)O)NC(=O)C(C)(C)NC(=O)[C@@H](N)Cc1c[nH]cn1)[C@@H](C)O)[C@@H](C)O)[C@@H](C)CC)C(=O)N[C@@H](C)C(=O)N[C@@H](Cc1c[nH]c2ccccc12)C(=O)N[C@@H](CC(C)C)C(=O)N[C@H](C(=O)N[C@@H](CCC(=O)O)C(=O)N[C@@H](Cc1c[nH]cn1)C(=O)N[C@@H](CCCCN)C(=O)N[C@H](C(=O)N[C@H](C(=O)N[C@@H](CC(=O)O)C(=O)O)[C@@H](C)O)[C@@H](C)CC)[C@@H](C)CC) [Compound 5]",0.063,0.17
"HXEGTFSSELATILDGXAARDFIAWLIEHKITD (HELM PEPTIDE1{H.[Aib].E.G.T.F.S.S.E.L.A.T.I.L.D.G.K.A.A.R.D.F.I.A.W.L.I.E.H.K.I.T.D}|PEPTIDE2{[O=C(O)CCCCCCCCCCCCCCCCC(=O)[*:2]].[gGlu]}$PEPTIDE1,PEPTIDE2,17:R3-2:R2$$$V2.0; SMILES CC[C@H](C)[C@H](NC(=O)[C@H](Cc1ccccc1)NC(=O)[C@H](CC(=O)O)NC(=O)[C@H](CCCNC(=N)N)NC(=O)[C@H](C)NC(=O)[C@H](C)NC(=O)[C@H](CCCCNC(=O)CC[C@H](NC(=O)CCCCCCCCCCCCCCCCC(=O)O)C(=O)O)NC(=O)CNC(=O)[C@H](CC(=O)O)NC(=O)[C@H](CC(C)C)NC(=O)[C@@H](NC(=O)[C@@H](NC(=O)[C@H](C)NC(=O)[C@H](CC(C)C)NC(=O)[C@H](CCC(=O)O)NC(=O)[C@H](CO)NC(=O)[C@H](CO)NC(=O)[C@H](Cc1ccccc1)NC(=O)[C@@H](NC(=O)CNC(=O)[C@H](CCC(=O)O)NC(=O)C(C)(C)NC(=O)[C@@H](N)Cc1c[nH]cn1)[C@@H](C)O)[C@@H](C)O)[C@@H](C)CC)C(=O)N[C@@H](C)C(=O)N[C@@H](Cc1c[nH]c2ccccc12)C(=O)N[C@@H](CC(C)C)C(=O)N[C@H](C(=O)N[C@@H](CCC(=O)O)C(=O)N[C@@H](Cc1c[nH]cn1)C(=O)N[C@@H](CCCCN)C(=O)N[C@H](C(=O)N[C@H](C(=O)N[C@@H](CC(=O)O)C(=O)O)[C@@H](C)O)[C@@H](C)CC)[C@@H](C)CC) [Compound 7]",0.019,0.92
"HXEGSFTSELATILDGXAARDFIAWLIEHKITD (HELM PEPTIDE1{H.[Aib].E.G.S.F.T.S.E.L.A.T.I.L.D.G.K.A.A.R.D.F.I.A.W.L.I.E.H.K.I.T.D}|PEPTIDE2{[O=C(O)CCCCCCCCCCCCCCCCC(=O)[*:2]].[gGlu]}$PEPTIDE1,PEPTIDE2,17:R3-2:R2$$$V2.0; SMILES CC[C@H](C)[C@H](NC(=O)[C@H](Cc1ccccc1)NC(=O)[C@H](CC(=O)O)NC(=O)[C@H](CCCNC(=N)N)NC(=O)[C@H](C)NC(=O)[C@H](C)NC(=O)[C@H](CCCCNC(=O)CC[C@H](NC(=O)CCCCCCCCCCCCCCCCC(=O)O)C(=O)O)NC(=O)CNC(=O)[C@H](CC(=O)O)NC(=O)[C@H](CC(C)C)NC(=O)[C@@H](NC(=O)[C@@H](NC(=O)[C@H](C)NC(=O)[C@H](CC(C)C)NC(=O)[C@H](CCC(=O)O)NC(=O)[C@H](CO)NC(=O)[C@@H](NC(=O)[C@H](Cc1ccccc1)NC(=O)[C@H](CO)NC(=O)CNC(=O)[C@H](CCC(=O)O)NC(=O)C(C)(C)NC(=O)[C@@H](N)Cc1c[nH]cn1)[C@@H](C)O)[C@@H](C)O)[C@@H](C)CC)C(=O)N[C@@H](C)C(=O)N[C@@H](Cc1c[nH]c2ccccc12)C(=O)N[C@@H](CC(C)C)C(=O)N[C@H](C(=O)N[C@@H](CCC(=O)O)C(=O)N[C@@H](Cc1c[nH]cn1)C(=O)N[C@@H](CCCCN)C(=O)N[C@H](C(=O)N[C@H](C(=O)N[C@@H](CC(=O)O)C(=O)O)[C@@H](C)O)[C@@H](C)CC)[C@@H](C)CC) [Compound 8]",0.039,0.22
H[Aib]EGTFSSELATILDK([γGlu-C18 diacid])KAARDFIAWLIEHKITD-OH [Compound 4],0.087,0.66
H-H[Aib]EGSFTSELATILDAKAAK([AEEA-Lys-Glu-Lys-γGlu-C20 diacid])DFIAWLIEHKITD-OH [Compound 68],0.1,0.084
H-H[Aib]EGTFTSELATILDEQAAK([AEEA-Lys-Glu-Lys-γGlu-C20 diacid])DFIAWLIEHKITD-OH [Compound 65],0.35,0.13
H-H[Aib]EGTFTSELATILDEQAAK([AEEA-AEEA-Lys-Glu-Lys-γGlu-C20 diacid])DFIAWLIEHKITD-OH [Compound 67],0.22,0.16
H-H[Aib]EGSFTSELATILEGK([AEEA-Lys-Glu-Lys-γGlu-C20 diacid])AARDFIAWLIEHKITD-OH [Compound 61],0.2,0.13
H-H[Aib]EGSFTSELATILDAK([AEEA-Lys-Glu-Lys-γGlu-C20 diacid])AARDFIAWLIEHKITD-OH [Compound 62],0.15,0.27
H[Aib]EGTFTSELATILDK([γGlu-C18 diacid])KAARDFIAWLIEHKITD-OH [Compound 6],0.12,0.058
